Data published in US20210062165A1 (TRUSTEES OF PRINCETON UNIVERSITY, published 2021).

B1: FUS^N-FusionRed-Cry2 fusion protein (other)
chain: MASASNDYTQQATQSYGAYPTQPGQGYSQQSSQPYGQQSYSGYSQSTDTSGYGQSSYSSYGQSQNTGYGTQSTPQGYGSTGGYGSSQSSQSSYGQQSSYPGYGQQPAPSSTSGSYGSSSQSSSYGQPQSGSYSQQPSYGGQQQSYGQQQSYNPPQGYGQQNQYNSSSGGGGGGGGGGNYGQDQSSMSSGGGSGGGYGNQDQSGGGGSGGYGQQDRGGGGMVSELIKENMPMKLYMEGTVNNHHFKCTSEGEGKPYEGTQTMRIKVVEGGPLPFAFDILATSFMYGSRTFIKHPPGIPDFFKQSFPEGFTWERVTTYEDGGVLTATQDTSLQDGCLIYNVKVRGVNFPANGPVMQKKTLGWEASTETMYPADGGLEGACDMALKLVGGGHLICNLETTYRSKKPATNLKMPGVYNVDHRLERIKEADDETYVEQHEVAVARYSTGGAGDGGKAATRMKMDKKTIVWFRRDLRIEDNPALAAAAHEGSVFPVFIWCPEEEGQFYPGRASRWWMKQSLAHLSQSLKALGSDLTLIKTHNTISAILDCIRVTGATKVVFNHLYDPVSLVRDHTVKEKLVERGISVQSYNGDLLYEPWEIYCEKGKPFTSFNSYWKKCLDMSIESVMLPPPWRLMPITAAAEAIWACSIEELGLENEAEKPSNALLTRAWSPGWSNADKLLNEFIEKQLIDYAKNSKKVVGNSTSLLSPYLHFGEISVRHVFQCARMKQIIWARDKNSEGEESADLFLRGIGLREYSRYICFNFPFTHEQSLLSHLRFFPWDADVDKFKAWRQGRTGYPLVDAGMRELWATGWMHNRIRVIVSSFAVKFLLLPWKWGMKYFWDTLLDADLECDILGWQYISGSIPDGHELDRLDNPALQGAKYDPEGEYIRQWLPELARLPTEWIHHPWDAPLTVLKASGVELGTNYAKPIVDIDTARELLAKAISRTREAQIMIGAAARDPPVATGSGSGSG
notes: Expressed inside S. cerevisiae cells (strains YEZ53, yNS47); The listing entry is DNA, not protein; also called optoDroplets; optoDroplet
B2: sFUS-FusionRed-PixD fusion protein (other)
chain: MASNDYTQQATQSYGAYPTQPGQGYSQQSSQPYGQQSYSGYSQSTDTSGYGQSSYSSYGQSQNTGYGTQSTPQGYGSTGGYGSSQSSQSSYGQQGGGMVSELIKENMPMKLYMEGTVNNHHFKCTSEGEGKPYEGTQTMRIKVVEGGPLPFAFDILATSFMYGSRTFIKHPPGIPDFFKQSFPEGFTWERVTTYEDGGVLTATQDTSLQDGCLIYNVKVRGVNFPANGPVMQKKTLGWEASTETMYPADGGLEGACDMALKLVGGGHLICNLETTYRSKKPATNLKMPGVYNVDHRLERIKEADDETYVEQHEVAVARYSTGGAGDGGKAATRMSLYRLIYSSQGIPNLQPQDLKDILESSQRNNPANGITGLLCYSKPAFLQVLEGECEQVNETYHRIVQDERHHSPQIIECMPIRRRNFEVWSMQAITVNDLSTEQVKTLVLKYSGFTTLRPSAMDPEQCLNFLLDIAKIYELSDNFFLDL
notes: Expressed inside S. cerevisiae cells (strain YEZ555). sFUS is the first 93 amino acids of the FUS^N domain; The listing entry is DNA, not protein; also called sFUS-FR-PixD; EZ-L767

Assays:
[1] = target: the molecule itself; test: microscopy of self-clustering in yeast (YEZ53), light against dark
Experimental: Yeast strains were cultured overnight in a 24 well plate covered with foil. SC media was used to avoid the high auto-fluorescence of YPD. The following day, cultures were diluted 1:20 and allowed to grow for 2 hours such that the cells were in exponential phase. Wells of the microscopy plate were coated using 1 mg/mL Concanavalin A (Sigma) dissolved in 20 mM sodium acetate. After washing wells with ddH2O, yeast cultures were transferred and spun down at 1000 rpm for 3 min. All imaging was carried out using a 60X oil immersion objective (NA 1.4) on a Nikon A1 laser scanning confocal microscope. The laser was used at two different wavelengths: 488 nm for activation of Cry2 and 551 nm for visualization of FusionRed. […] Laser settings were 40% intensity for 488 nm and 30% intensity for 561 nm. Exposure times for both wavelengths was 200 ms.

[2] = target: T1, FUS^N-Citrine-PixE fusion protein; test: microscopy of co-clustering in yeast strain YEZ555, dark against blue light
T1 construct: Expressed inside S. cerevisiae cells (strains YEZ231, YEZ232, YEZ555); The listing entry is DNA, not protein; also called FUS^NPixE; EZ-L498

Binder | binding result [1] | binding result [2]
B1 | binds | –
B2 | – | binds
